# In patent US9833497B2, “Human originated EGF domain proteins and use of the same” (CHENGDU SOURCEBIO LIMITED-LIABILITY COMPANY, priority 2013, dated 2017):
# B1: PRT499 (protein, listed as Homo sapiens)
# chain: CNCHNKAKDCYYDESVAKQKKSLNTAGQFRGGGVCINCLQNTMGINCETCIDGYYRPHKVSPYEDEPCRP
# B2: PRT480 (protein, listed as Homo sapiens)
# chain: VCSLHLCRNNGRCIRKMWNAPSYLHLNPASYHIEASEDGEFTVKGKASDTDLAVMADTFSCHCYQGYEGADCR
# B3: PRT587 (protein, listed as Homo sapiens)
# chain: CFCHGHADRCAPKPGASAGPSTAVQVHDVCVCQHNTAGPNCERCAPFYNNRPWRPAEGQDAHECQR
# B4: PRT514 (protein, listed as Homo sapiens)
# chain: CNCHGKAEECYYDENVARRNLSLNIRGKYIGGGVCINCTQNTAGINCETCTDGFFRPKGVSPNYPRPCQP
# B5: PRT477 (protein, listed as Homo sapiens)
# chain: LCSQALCSGHGRCVRRTSHPKALLLLNPASFSIQLTPGGGPLSLRGALSLGDQAQMAVEFKCRCYPGWQAPWCE
# B6: PRT529 (protein, listed as Homo sapiens)
# chain: CNCHGHASNCYYDPDVERQQASLNTQGIYAGGGVCINCQHNTAGVNCEQCAKGYYRPYGVPVDAPDGCIP
# B7: PRT551 (protein, listed as Homo sapiens)
# chain: CNCYGHATDCYYDPEVDRRRASQSLDGTYQGGGVCIDCQHHTTGVNCERCLPGFYRSPNHPLDSPHVCRR
# B8: PRT1182 (protein, listed as Homo sapiens)
# chain: PREPCPGGACRVIDGCGSDAGPGMPGTAASGVCGPHGRCVSQPGGNFSCICDSGFTGTYCH
# B9: PRT1459 (protein, listed as Homo sapiens)
# chain: CQCNSHSKSCHYNISVDPFPFEHFRGGGGVCDDCEHNTTGRNCELCKDYFFRQVGADPSAIDVCKP
# Tested on: E. coli BL21
# Experiment: MIC against Gram-negative bacteria: E. coli BL21
# Assay type: cell-based
# Conditions: 96-well plate, 5×10^5 CFU/mL, 37° C., 10 h
# Experimental: (§1) 1. Gram-negative bacteria, such as E. coli BL21, Pseudomonas aeruginosa, Klebsiella pneumonia, Enterobacter cloacae, Aeromonas hydrophila, Citrobacter diversus, Moraxella catarrhalis, Proteus mirabilis, Proteus vulgaris, Serratia marcescens, etc were streaked on solid LB medium and cultured respectively. Then, typical clones were picked, inoculated into common liquid LB medium respectively, and cultured at 37° C. with shaking at 185 rpm until the McFarland specific turbidity was 0.5. The bacterial culture of each of Gram-negative bacteria was centrifuged at 4000×g for 3 min, the supernatant was discarded, and the thalli were resuspended with fresh LB medium.
# (§2) 2. The above-mentioned bacterial suspensions were diluted and inoculated into 96-well plates with the final concentration of the bacterial suspension being 5×10^5 CFU/mL per well.
# (§3) 3. Each of the purified human-originated EGF domain proteins (PRT1 to PRT1498 in Table 1) was added to each of the above wells and subjected to two-fold serial dilution in concentration. Three parallel wells were set up for each concentration in the gradient.
# (§4) 4. The above-mentioned 96-well plates were placed and cultured at 37° C. in shaking incubator shaking at 175 rpm. […] The minimal inhibitory concentration MIC is defined as the lowest concentration of the recombinant protein at which there is no growth of the bacteria.
row,Molecule,MIC against E. coli BL21 [µg/mL]
1,B1,25
2,B2,25
3,B3,50
4,B4,12.5
5,B5,50
6,B6,12.5
7,B7,25

# Same assay, conditions: 10 h cultivation at 37° C., 5×10^5 CFU/mL, two-fold serial dilution
row,Molecule,MIC E. coli BL21 [µg/mL]
1,B8,25

# Same assay, conditions: E. coli BL21; 5×10^5 CFU/mL; 10 h cultivation at 37° C.
row,Molecule,MIC against E. coli BL21 [µg/mL]
1,B9,50

# Tested on: Citrobacter diversus
# Experiment: MIC against Gram-negative bacteria: Citrobacter diversus
# Assay type: cell-based
# Conditions: 96-well plate, 5×10^5 CFU/mL, 37° C., 10 h
# Experimental: as §1, §2, §3, §4
row,Molecule,MIC against C. diversus [µg/mL]
1,B1,12.5
2,B2,50
3,B3,25
4,B4,12.5
5,B5,25
6,B6,25
7,B7,50

# Same assay, conditions: 10 h cultivation at 37° C., 5×10^5 CFU/mL, two-fold serial dilution
row,Molecule,MIC C. diversus [µg/mL]
1,B8,50

# Same assay, conditions: Citrobacter diversus; 5×10^5 CFU/mL; 10 h cultivation at 37° C.
row,Molecule,MIC against C. diversus [µg/mL]
1,B9,50

# Tested on: Aeromonas hydrophila
# Experiment: MIC against Gram-negative bacteria: Aeromonas hydrophila
# Assay type: cell-based
# Conditions: 96-well plate, 5×10^5 CFU/mL, 37° C., 10 h
# Experimental: as §1, §2, §3, §4
row,Molecule,MIC against A. hydrophila [µg/mL]
1,B1,25
2,B2,25
3,B3,50
4,B4,25
5,B5,12.5
6,B6,12.5
7,B7,25

# Same assay, conditions: 10 h cultivation at 37° C., 5×10^5 CFU/mL, two-fold serial dilution
row,Molecule,MIC A. hydrophila [µg/mL]
1,B8,12.5

# Same assay, conditions: Aeromonas hydrophila; 5×10^5 CFU/mL; 10 h cultivation at 37° C.
row,Molecule,MIC against A. hydrophila [µg/mL]
1,B9,25

# Tested on: E. coli DH5α
# Experiment: Antibacterial activity: MIC and growth curve against E. coli DH5α in 96-well plate
# Assay type: cell-based
# Conditions: minimal inhibitory concentration against E. coli DH5α; 96-well plate, 5×10^5 CFU/mL, 37° C., judged after 8 h
# Experimental: 1. E. coli DH5α was exemplified. E. coli DH5α was streaked and cultured on LB solid medium. Then, a typical clone was picked and inoculated into common LB liquid medium, cultured at 37° C. with shaking at 185 rpm until the logarithmic growth phase was reached (OD600 of about 0.5). The bacterial culture was centrifuged at 4000×g for 3 min, the supernatant was discarded, and the thalli were resuspended with fresh LB medium.
# 2. The above-mentioned bacterial suspension was diluted and inoculated into a 96-well plate with the total volume of 100 μL per well and a bacterial count of 5×10^5 CFU/mL.
# 3. The recombinant protein hF VII-EGF1 was added to the above-mentioned wells with the final protein concentration in the well of the highest protein concentration being 50 μg/mL. Basing on this final concentration, a two-fold serial dilution was performed till a protein concentration gradient consisting of 50, 25, and 12.5 μg/mL was set up. Three parallel wells were set up for each concentration in the gradient.
# 4. The above-mentioned 96-well plate was placed and cultured at 37° C. in shaking incubator shaking at 175 rpm. Samples were taken every 30 min, the absorbance values were determined at 600 nm wavelength under a ultra violet spectrophotometer, and an inhibition curve was plotted. […] The minimal inhibitory concentration MIC is defined as the lowest concentration of the recombinant protein at which there is no growth of the bacteria.
# According to the experimental procedures in Example 14, the minimal inhibitory concentrations (MIC, μg/mL) of the other human-originated EGF domain proteins (PRT2 to PRT1498 in Table 1) for E. coli DH5α were determined.
row,Molecule,MIC [µg/mL]
1,B8,12.5
2,B1,12.5
3,B9,12.5
4,B2,12.5
5,B3,25
6,B4,50
7,B5,12.5
8,B6,25
9,B7,12.5

# Tested on: Proteus vulgaris
# Experiment: MIC against Gram-negative bacteria: Proteus vulgaris
# Assay type: cell-based
# Conditions: 96-well plate, 5×10^5 CFU/mL, 37° C., 10 h
# Experimental: as §1, §2, §3, §4
row,Molecule,MIC against P. vulgaris [µg/mL]
1,B1,25
2,B2,25
3,B3,50
4,B4,25
5,B5,12.5
6,B6,12.5
7,B7,25

# Same assay, conditions: 10 h cultivation at 37° C., 5×10^5 CFU/mL, two-fold serial dilution
row,Molecule,MIC P. vulgaris [µg/mL]
1,B8,12.5

# Same assay, conditions: Proteus vulgaris; 5×10^5 CFU/mL; 10 h cultivation at 37° C.
row,Molecule,MIC against P. vulgaris [µg/mL]
1,B9,50

# Tested on: Proteus mirabilis
# Experiment: MIC against Gram-negative bacteria: Proteus mirabilis
# Assay type: cell-based
# Conditions: 96-well plate, 5×10^5 CFU/mL, 37° C., 10 h
# Experimental: as §1, §2, §3, §4
row,Molecule,MIC against P. mirabilis [µg/mL]
1,B1,50
2,B2,12.5
3,B3,25
4,B4,12.5
5,B5,25
6,B6,25
7,B7,12.5

# Same assay, conditions: 10 h cultivation at 37° C., 5×10^5 CFU/mL, two-fold serial dilution
row,Molecule,MIC P. mirabilis [µg/mL]
1,B8,50

# Same assay, conditions: Proteus mirabilis; 5×10^5 CFU/mL; 10 h cultivation at 37° C.
row,Molecule,MIC against P. mirabilis [µg/mL]
1,B9,25

# Tested on: Pseudomonas aeruginosa
# Experiment: MIC against Gram-negative bacteria: Pseudomonas aeruginosa
# Assay type: cell-based
# Conditions: 96-well plate, 5×10^5 CFU/mL, 37° C., 10 h
# Experimental: as §1, §2, §3, §4
row,Molecule,MIC against P. aeruginosa [µg/mL]
1,B1,100
2,B2,50
3,B3,25
4,B4,50
5,B5,12.5
6,B6,25
7,B7,50

# Same assay, conditions: 10 h cultivation at 37° C., 5×10^5 CFU/mL, two-fold serial dilution
row,Molecule,MIC P. aeruginosa [µg/mL]
1,B8,50

# Same assay, conditions: Pseudomonas aeruginosa; 5×10^5 CFU/mL; 10 h cultivation at 37° C.
row,Molecule,MIC against P. aeruginosa [µg/mL]
1,B9,25

# Tested on: Serratia marcescens
# Experiment: MIC against Gram-negative bacteria: Serratia marcescens
# Assay type: cell-based
# Conditions: 96-well plate, 5×10^5 CFU/mL, 37° C., 10 h
# Experimental: as §1, §2, §3, §4
row,Molecule,MIC against S. marcescens [µg/mL]
1,B1,12.5
2,B2,50
3,B3,25
4,B4,12.5
5,B5,25
6,B6,25
7,B7,50

# Same assay, conditions: 10 h cultivation at 37° C., 5×10^5 CFU/mL, two-fold serial dilution
row,Molecule,MIC S. marcescens [µg/mL]
1,B8,25

# Same assay, conditions: Serratia marcescens; 5×10^5 CFU/mL; 10 h cultivation at 37° C.
row,Molecule,MIC against S. marcescens [µg/mL]
1,B9,25

# Tested on: Enterobacter cloacae
# Experiment: MIC against Gram-negative bacteria: Enterobacter cloacae
# Assay type: cell-based
# Conditions: 96-well plate, 5×10^5 CFU/mL, 37° C., 10 h
# Experimental: as §1, §2, §3, §4
row,Molecule,MIC against E. cloacae [µg/mL]
1,B1,12.5
2,B2,12.5
3,B3,25
4,B4,12.5
5,B5,25
6,B6,25
7,B7,12.5

# Same assay, conditions: 10 h cultivation at 37° C., 5×10^5 CFU/mL, two-fold serial dilution
row,Molecule,MIC E. cloacae [µg/mL]
1,B8,25

# Same assay, conditions: Enterobacter cloacae; 5×10^5 CFU/mL; 10 h cultivation at 37° C.
row,Molecule,MIC against E. cloacae [µg/mL]
1,B9,12.5

# Tested on: Klebsiella pneumonia
# Experiment: MIC against Gram-negative bacteria: Klebsiella pneumonia
# Assay type: cell-based
# Conditions: 96-well plate, 5×10^5 CFU/mL, 37° C., 10 h
# Experimental: as §1, §2, §3, §4
row,Molecule,MIC against K. pneumonia [µg/mL]
1,B1,25
2,B2,25
3,B3,12.5
4,B4,25
5,B5,50
6,B6,50
7,B7,25

# Same assay, conditions: 10 h cultivation at 37° C., 5×10^5 CFU/mL, two-fold serial dilution
row,Molecule,MIC K. pneumonia [µg/mL]
1,B8,25

# Same assay, conditions: Klebsiella pneumonia; 5×10^5 CFU/mL; 10 h cultivation at 37° C.
row,Molecule,MIC against K. pneumonia [µg/mL]
1,B9,25

# Tested on: Moraxella catarrhalis
# Experiment: MIC against Gram-negative bacteria: Moraxella catarrhalis
# Assay type: cell-based
# Conditions: 96-well plate, 5×10^5 CFU/mL, 37° C., 10 h
# Experimental: as §1, §2, §3, §4
row,Molecule,MIC against M. catarrhalis [µg/mL]
1,B1,25
2,B2,25
3,B3,12.5
4,B4,25
5,B5,50
6,B6,50
7,B7,25

# Same assay, conditions: 10 h cultivation at 37° C., 5×10^5 CFU/mL, two-fold serial dilution
row,Molecule,MIC M. catarrhalis [µg/mL]
1,B8,12.5

# Same assay, conditions: Moraxella catarrhalis; 5×10^5 CFU/mL; 10 h cultivation at 37° C.
row,Molecule,MIC against M. catarrhalis [µg/mL]
1,B9,12.5
